Consider one molecule from paper PMC3863769.

The target of the experiment is mPVR-Ig (extracellular portion of mouse PVR fused to the Fc portion of human IgG1) (mouse). Nature of the experiment: SPR. For orientation: In SPR one partner is held on a chip, and binding of the other changes the refractive index at the surface.

B1: mDNAM1-Ig (extracellular portion of mouse DNAM1 fused to the Fc portion of human IgG1) (Fc fusion)
chain: EETLWDTTVRLSETMTLECVYPLTHNLTQVEWTKNTGTKTVSIAVYNPNHNMHIESNYLHRVHFLNSTVGFRNMSLSFYNASEADIGIYSCLFHAFPNGPWEKKIKVVWSDSFEIAAPSDSYLSAEPGQDVTLTCQLPRTWPVQQVIWEKVQPHQVDILASCNLSQETRYTSKYLRQTRSNCSQGSMKSILIIPNAMAADSGLYRCRSEAITGKNKSFVIRLIITDGGTNKHFILP
B1: the Kd – broadly, the equilibrium constant for the complex coming apart – turned out to be 5.16 µM; the koff – broadly, the rate constant with which the complex falls apart – is 0.00259 s⁻¹; the kon (usually a measure of how fast the partners come together) is 502 M⁻¹ s⁻¹.
